The values that follow come from PMC8786824 (Scientific Reports, 2022).

The target of this test is MERS-CoV RBD (amino acids 367 to 588) of the spike glycoprotein (MERS-CoV, UniProt K9N5Q8). The test is described as follows: crystal structure. Conditions: both partners purified.
Chain of MERS-CoV RBD (amino acids 367 to 588) of the spike glycoprotein (K9N5Q8 367-588): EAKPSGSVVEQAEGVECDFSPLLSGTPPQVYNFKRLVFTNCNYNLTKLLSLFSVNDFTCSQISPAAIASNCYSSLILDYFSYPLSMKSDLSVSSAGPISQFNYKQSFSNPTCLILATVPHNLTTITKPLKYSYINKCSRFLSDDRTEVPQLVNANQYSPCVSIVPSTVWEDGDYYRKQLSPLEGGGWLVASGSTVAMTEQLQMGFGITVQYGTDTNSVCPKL

B1: KNIH90-F1 antigen-binding fragment (Fab) (Fab, V domains shown)
VH: QVQLVQSGAEVKRPGSSVKVSCKTSGGTFNNNAINWVRQAPGQGLEWMGGIIPFFGIAKYAQKFQGRVTITADESTSTAYMELSSLRSEDTAVYYCARDLPRESSYGSGSYYTHYYAMDVWGQGTTVTVSS
VL: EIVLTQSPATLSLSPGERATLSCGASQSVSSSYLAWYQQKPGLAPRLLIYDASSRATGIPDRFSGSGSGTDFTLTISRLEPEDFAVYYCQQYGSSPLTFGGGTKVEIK
notes: also called KNIH90-F1 Fab; nAb KNIH90-F1
With B1, the binding result was “binds”.
